{
  "source": "paper PMC10069731",
  "about": "(2023)",
  "biological_target": "SARS-CoV-2 WT RBD (SARS-CoV-2, UniProt P0DTC2)",
  "test": "BLI",
  "data": [
    {"binder": "rabbit monoclonal antibody (RmAb) 1H1, IgG (antibody, V domains shown) VH: QSLEESGGDLVKPGASLTLTCTASGFSFSSGYDMCWVRQAPGKGLEWIACIGTGSSGNIYYASWAKGRFTISKTSSTTVTLQMTSLTAADTATYFCARDDADYAGPDYFNLWGPGTLVTVSS VL: DIVMTQTPASVSEPVGGTVTIKCQASESISNWLAWYQQKPGQPPKLLIYAAFTLASGVPSRFKGSGSGTQFTLTINGVECADAATYYCQQTYSSRDVDNVFGGGTEVVVK", "values": [
      {"measurement": "Kd", "value": 0.0898, "unit": "nM"}
    ]}
  ]
}
